Data on four molecules can be found in patent US20260242735A1 (UNIVERSIT T BASEL, published 2026).

Assay [1] deals with human CD33 H45Y (human, UniProt P20138 18-364). In words: flow cytometry on transfected cells, IgG. For orientation: In flow cytometry, cells or beads pass a laser one at a time.
Method: (§1) An alanine scan on human CD33 was performed to the determine the residues on CD33 that are involved in binding to the antibodies investigated. […] Briefly, a mutation library of CD33 was created by high-throughput, site-directed mutagenesis. Each residue was individually mutated to alanine, with alanine codons mutated to serine. The mutant library was arrayed in 384-well microplates and transiently transfected into HEK293-T. Following transfection, cells were incubated with the indicated antibodies (IgG or Fab) at concentrations pre-determined using an independent immunofluorescence titration curve on wild type CD33. […] Binding of each antibody to each mutant clone was determined in duplicates. For each point, background fluorescence was subtracted from the raw data, which were then normalized to antibody reactivity with wild type CD33.
(§2) Antibodies were screened for binding to the human CD33 variants in IgG format. […] For each mutation, background fluorescence was subtracted from the raw data, which were then normalized to antibody reactivity with wild-type CD33.
The target in assay [2] is human CD33 P46R (human, UniProt P20138 18-364). In words: flow cytometry on transfected cells, IgG.
Method: as §1, §2
Assay [3] concerns the target human CD33 P46H (human, UniProt P20138 18-364). In words: flow cytometry on transfected cells, IgG.
Method: as §1, §2
Assay [4] has as its target human CD33 I47L (human, UniProt P20138 18-364). In words: flow cytometry on transfected cells, IgG.
Method: as §1, §2
For assay [5], the target named is human CD33 I47Q (human, UniProt P20138 18-364). The experiment in a line: flow cytometry on transfected cells, IgG.
human CD33 I47Q, sequence (P20138 18-364 I47Q limits assumed): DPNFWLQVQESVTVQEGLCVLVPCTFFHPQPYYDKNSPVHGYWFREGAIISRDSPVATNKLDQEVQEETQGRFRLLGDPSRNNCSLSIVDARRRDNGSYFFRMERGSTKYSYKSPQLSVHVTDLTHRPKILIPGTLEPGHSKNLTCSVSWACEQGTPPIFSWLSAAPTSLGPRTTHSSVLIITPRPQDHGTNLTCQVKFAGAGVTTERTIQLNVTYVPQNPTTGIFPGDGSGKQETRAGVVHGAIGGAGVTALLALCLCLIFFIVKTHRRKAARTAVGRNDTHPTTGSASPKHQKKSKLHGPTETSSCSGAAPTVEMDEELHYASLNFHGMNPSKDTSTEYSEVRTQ
Method: as §1, §2
The target in assay [6] is human CD33 I47R (human, UniProt P20138 18-364). The experiment in a line: flow cytometry on transfected cells, IgG.
Method: as §1, §2
In assay [7] the target is human CD33 I47N (human, UniProt P20138 18-364). In words: flow cytometry on transfected cells, IgG.
Method: as §1, §2
Assay [8] has as its target human CD33 P48Y (human, UniProt P20138 18-364). The experiment in a line: flow cytometry on transfected cells, IgG.
Method: as §1, §2
The target of assay [9] is human CD33 P48Q (human, UniProt P20138 18-364). In words: flow cytometry on transfected cells, IgG.
Method: as §1, §2
Assay [10] addresses human CD33 P48D (human, UniProt P20138 18-364). In words: flow cytometry on transfected cells, IgG.
Method: as §1, §2
In assay [11] the target is human CD33 P48G (human, UniProt P20138 18-364). In words: flow cytometry on transfected cells, IgG.
Method: as §1, §2
In assay [12] the target is human CD33 P48S (human, UniProt P20138 18-364). In words: flow cytometry on transfected cells, IgG.
Method: as §1, §2
The target in assay [13] is human CD33 Y49P (human, UniProt P20138 18-364). In words: flow cytometry on transfected cells, IgG.
human CD33 Y49P, sequence (P20138 18-364 Y49P limits assumed): as the sequence (P20138 18-364 I47Q limits assumed) above, with Q30I, Y32P counted along it
Method: as §1, §2
The target of assay [14] is human CD33 Y49R (human, UniProt P20138 18-364). In words: flow cytometry on transfected cells, IgG.
human CD33 Y49R, sequence (P20138 18-364 Y49R limits assumed): as the sequence (P20138 18-364 I47Q limits assumed) above, with Q30I, Y32R counted along it
Method: as §1, §2
The target of assay [15] is human CD33 Y49C (human, UniProt P20138 18-364). In words: flow cytometry on transfected cells, IgG.
Method: as §1, §2
Assay [16] addresses human CD33 Y50S (human, UniProt P20138 18-364). The experiment in a line: flow cytometry on transfected cells, IgG.
Method: as §1, §2
The target in assay [17] is human CD33 Y50V (human, UniProt P20138 18-364). The experiment in a line: flow cytometry on transfected cells, IgG.
Method: as §1, §2
Assay [18] addresses human CD33 Y50I (human, UniProt P20138 18-364). In words: flow cytometry on transfected cells, IgG.
Method: as §1, §2
The target in assay [19] is human CD33 Y50Q (human, UniProt P20138 18-364). In words: flow cytometry on transfected cells, IgG.
Method: as §1, §2
Assay [20] has as its target human CD33 Y50G (human, UniProt P20138 18-364). In words: flow cytometry on transfected cells, IgG.
Method: as §1, §2
Assay [21] concerns the target human CD33 Y50L (human, UniProt P20138 18-364). In words: flow cytometry on transfected cells, IgG.
Method: as §1, §2
Assay [22] addresses human CD33 Y50P (human, UniProt P20138 18-364). In words: flow cytometry on transfected cells, IgG.
Method: as §1, §2
Assay [23] addresses human CD33 F43V (human, UniProt P20138 18-364). The experiment in a line: flow cytometry on transfected cells, IgG.
Method: as §1, §2
Assay [24] addresses human CD33 D51N (human, UniProt P20138 18-364). The experiment in a line: flow cytometry, transfected cells, IgG.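 Further: CD33 point mutants transiently expressed in HEK293-T cells, antibody binding read by fluorescence, background subtracted and normalized to wild-type CD33 as 100%, duplicates.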
Method: as §1, §2
In assay [25] the target is human CD33 K52Y (human, UniProt P20138 18-364). In words: flow cytometry, transfected cells, IgG.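 Further: CD33 point mutants transiently expressed in HEK293-T cells, antibody binding read by fluorescence, background subtracted and normalized to wild-type CD33 as 100%, duplicates.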
Method: as §1, §2
Assay [26] deals with human CD33 M120I (human, UniProt P20138 18-364). The experiment in a line: flow cytometry, transfected cells, IgG.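 Further: CD33 point mutants transiently expressed in HEK293-T cells, antibody binding read by fluorescence, background subtracted and normalized to wild-type CD33 as 100%, duplicates.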
human CD33 M120I, sequence (P20138 18-364 M120I limits assumed): as the sequence (P20138 18-364 I47Q limits assumed) above, with Q30I, M103I counted along it
Method: as §1, §2
The target in assay [27] is human CD33 R122I (human, UniProt P20138 18-364). The experiment in a line: flow cytometry, transfected cells, IgG.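 Further: CD33 point mutants transiently expressed in HEK293-T cells, antibody binding read by fluorescence, background subtracted and normalized to wild-type CD33 as 100%, duplicates.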
human CD33 R122I, sequence (P20138 18-364 R122I limits assumed): as the sequence (P20138 18-364 I47Q limits assumed) above, with Q30I, R105I counted along it
Method: as §1, §2
Assay [28] has as its target human CD33 R122F (human, UniProt P20138 18-364). In words: flow cytometry, transfected cells, IgG.
Method: as §1, §2
The target of assay [29] is human CD33 Y129S (human, UniProt P20138 18-364). In words: flow cytometry, transfected cells, IgG.
Method: as §1, §2
The target in assay [30] is human CD33 S131T (human, UniProt P20138 18-364). In words: flow cytometry, transfected cells, IgG.
human CD33 S131T, sequence (P20138 18-364 S131T limits assumed): as the sequence (P20138 18-364 I47Q limits assumed) above, with Q30I, S114T counted along it
Method: as §1, §2
The target of assay [31] is human CD33 S131K (human, UniProt P20138 18-364). The experiment in a line: flow cytometry, transfected cells, IgG.
human CD33 S131K, sequence (P20138 18-364 S131K limits assumed): as the sequence (P20138 18-364 I47Q limits assumed) above, with Q30I, S114K counted along it
Method: as §1, §2
Assay [32] concerns the target human CD33 S131M (human, UniProt P20138 18-364). The experiment in a line: flow cytometry, transfected cells, IgG.
Method: as §1, §2
The target in assay [33] is human CD33 S131W (human, UniProt P20138 18-364). The experiment in a line: flow cytometry, transfected cells, IgG.
Method: as §1, §2
Assay [34] deals with human CD33 P132F (human, UniProt P20138 18-364). In words: flow cytometry, transfected cells, IgG.
Method: as §1, §2
Assay [35] concerns the target human CD33 P132K (human, UniProt P20138 18-364). In words: flow cytometry, transfected cells, IgG.
Method: as §1, §2
Assay [36] concerns the target human CD33 P132Q (human, UniProt P20138 18-364). The experiment in a line: flow cytometry, transfected cells, IgG.
Method: as §1, §2
The target in assay [37] is human CD33 L134F (human, UniProt P20138 18-364). The experiment in a line: flow cytometry, transfected cells, IgG.
Method: as §1, §2
In assay [38] the target is human CD33 L134M (human, UniProt P20138 18-364). The experiment in a line: flow cytometry, transfected cells, IgG.
human CD33 L134M, sequence (P20138 18-364 L134M limits assumed): as the sequence (P20138 18-364 I47Q limits assumed) above, with Q30I, L117M counted along it
Method: as §1, §2

human CD33 H45Y, sequence (P20138 18-364 H45Y limits assumed): as the sequence (P20138 18-364 I47Q limits assumed) above, with H28Y, Q30I counted along it
human CD33 F43V, sequence (P20138 18-364 F43V limits assumed): as the sequence (P20138 18-364 I47Q limits assumed) above, with F26V, Q30I counted along it
human CD33 P132Q, sequence (P20138 18-364 P132Q limits assumed): as the sequence (P20138 18-364 I47Q limits assumed) above, with Q30I, P115Q counted along it
human CD33 S131M, sequence (P20138 18-364 S131M limits assumed): as the sequence (P20138 18-364 I47Q limits assumed) above, with Q30I, S114M counted along it
human CD33 Y50I, sequence (P20138 18-364 Y50I limits assumed): as the sequence (P20138 18-364 I47Q limits assumed) above, with Q30I, Y33I counted along it
human CD33 R122F, sequence (P20138 18-364 R122F limits assumed): as the sequence (P20138 18-364 I47Q limits assumed) above, with Q30I, R105F counted along it

B1: Refmab #5 (antibody, human IgG1, V domains shown)
VH: QVQLVQSGAEVKKPGASVKVSCKASGYTFTNYDINWVRQAPGQGLEWIGWIYPGDGSTKYNEKFKAKATLTADTSTSTAYMELRSLRSDDTAVYYCASGYEDAMDYWGQGTTVTVSS
VL: DIQMTQSPSSLSASVGDRVTINCKASQDINSYLSWFQQKPGKAPKTLIYRANRLVDGVPSRFSGSGSGQDYTLTISSLQPEDFATYYCLQYDEFPLTFGGGTKVEIK
Turning to B1, the “Mean % WT Binding” value stood at 94.2 % WT binding in assay [1]; 103 % WT binding in assay [2]; 69.8 % WT binding in assay [3]; 107 % WT binding in assay [4]; 94.6 % WT binding in assay [5]; 94.6 % WT binding in assay [6]. Moreover, the “Mean % WT Binding” value was 88 % WT binding in assay [7]; 1.5 % WT binding in [8]; 2.1 % WT binding in [9]; 2.1 % WT binding in assay [10]; 3.5 % WT binding in assay [11]; 43 % WT binding in assay [12]. Also, the “Mean % WT Binding” value in assay [13] came to 2.2 % WT binding; in assay [14], 1 % WT binding; in assay [15] it was 0.7 % WT binding; in [16], 5.3 % WT binding; in [17] it was 4.2 % WT binding; in assay [18] it was 2.5 % WT binding. Besides, the “Mean % WT Binding” value in [19] was found to be 2.9 % WT binding; in assay [20], 5 % WT binding; in assay [21] it was 1.7 % WT binding; in assay [22], 43.4 % WT binding; in assay [23], 82.2 % WT binding.

B2: Refmab #5 (antibody, human IgG1, V domains shown)
VH: B1 VH
VL: B1 VL
Turning to B2, the “Mean % WT Binding” value in [24] turned out to be 89.4%; in [25], 2%; in assay [26], 93%; in [27], 86.1%; in assay [28] it was 90.1%; in assay [29], 94.7%. Also, the “Mean % WT Binding” value was determined as 89% in assay [30]; 96.4% in assay [31]; 83.8% in [32]; 94.5% in assay [33]; 68.5% in [34]; 97.1% in assay [35]. Further, the “Mean % WT Binding” value worked out at 88.4% in assay [36], 102% in assay [37] and 86.1% in assay [38].

B3: Refmab #6 (antibody, human IgG1, V domains shown)
VH: QVQLQQPGAEVVKPGASVKMSCKASGYTFTSYYIHWIKQTPGQGLEWVGVIYPGNDDISYNQKFQGKATLTADKSSTTAYMQLSSLTSEDSAVYYCAREVRLRYFDVWGQGTTVTVSS
VL: EIVLTQSPGSLAVSPGERVTMSCKSSQSVFFSSSQKNYLAWYQQIPGQSPRLLIYWASTRESGVPDRFTGSGSGTDFTLTISSVQPEDLAIYYCHQYLSSRTFGQGTKLEIK
For B3, the “Mean % WT Binding” value came out at 84.4 % WT binding in [1]; 103 % WT binding in [2]; 107 % WT binding in [3]; 99.1 % WT binding in assay [4]; 107 % WT binding in [5]; 96.9 % WT binding in [6]. Besides, the “Mean % WT Binding” value in assay [7] amounted to 96.6 % WT binding; in assay [8], 79.1 % WT binding; in [9], 111 % WT binding; in assay [10], 115 % WT binding; in assay [11], 89 % WT binding; in assay [12] it was 97.2 % WT binding. Further, the “Mean % WT Binding” value in assay [13] was 117 % WT binding; in [14], 101 % WT binding; in assay [15], 44.7 % WT binding; in [16], 122 % WT binding; in assay [17] it was 108 % WT binding; in assay [18], 118 % WT binding. The “Mean % WT Binding” value amounted to 103 % WT binding in [19]; 115 % WT binding in assay [20]; 108 % WT binding in [21]; 98.1 % WT binding in [22]; 91.8 % WT binding in assay [23].

B4: Refmab #6 (antibody, human IgG1, V domains shown)
VH: B3 VH
VL: B3 VL
For the molecule B4, the “Mean % WT Binding” value in assay [24] was determined as 92.6%; in [25], 26.3%; in assay [26], 102%; in assay [27], 107%; in assay [28] it was 92.5%; in assay [29], 99.6%. In addition, the “Mean % WT Binding” value in [30] came out at 99.5%; in assay [31], 2.5%; in assay [32], 4.3%; in assay [33], 1.1%; in assay [34], 1.6%; in [35] it was 2.2%. The entries for the “Mean % WT Binding” value in assay [36], in assay [37] and in assay [38] were 5.4%, 90.7% and 99.5%, respectively.
